This is an account of results in the supplement of paper PMC5998384.

Data set [1] deals with HeLa Kyoto. The data set is described as follows: solubility change mitosis vs G1/S (difference of NP-40 vs SDS log2 ratios) (log2 ratio difference); higher = more soluble in mitosis.
The test system of data set [2] is HeLa Kyoto. The data set is described as follows: thermal stability score vs G1/S (z-score of summed log2 fold changes over temperatures); higher = more thermally stable than in G1/S.
The subject of data set [3] is HeLa Kyoto. The data set is described as follows: melting temperature (median over replicates), in situ; higher = more thermally stable.
Data set [4] relates to HeLa Kyoto. Briefly: solubility in G1/S (NP-40 vs SDS abundance) (log2 ratio); higher = more soluble. To be noted: cell cycle stage: G1/S.
The mark [5] stands for this setting: cell cycle stage: early G1 (4.5 h after nocodazole release).
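Wherever melting temperature (median over replicates), in situ is given: HeLa Kyoto cells synchronized by double thymidine or nocodazole block, proteins quantified by TMT10plex mass spectrometry, three independent biological replicates.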
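Wherever solubility change mitosis vs G1/S (difference of NP-40 vs SDS log2 ratios) is given: synchronized HeLa Kyoto cells (double thymidine block for G1/S, nocodazole release for mitosis), protein amounts in NP-40 versus SDS lysates quantified by mass spectrometry, three biological replicates.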
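Wherever solubility in G1/S (NP-40 vs SDS abundance) is given: HeLa Kyoto cells arrested at G1/S by double thymidine block, proteins quantified by TMT10plex mass spectrometry in mild NP-40 versus SDS extracts, three biological replicates.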
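Wherever thermal stability score vs G1/S (z-score of summed log2 fold changes over temperatures) is given: synchronized HeLa Kyoto cells, proteins quantified by TMT10plex mass spectrometry, three biological replicates, mitosis taken 0.5 h after nocodazole release, G1/S directly after double thymidine block.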

As for “MEAAVAAPRPRLLLLVLAAAAAAAAALLPGATALQCFCHLCTKDNFTCVTDGLCFVSVTETTDKVIHNSMCIAEIDLIPRDRPFVCAPSSKTGSVTTTYCCNQDHCNKIELPTTVKSSPGLGPVELAAVIAGPVCFVCISLMLMVYICHNRTVIHHRVPNEEDPSLDRPFISEGTTLKDLIYDMTTSGSGSGLPLLVQRTIARTIVLQESIGKGRFGEVWRGKWRGEEVAVKIFSSREERSWFREAEIYQTVMLRHENILGFIAADNKDNGTWTQLWLVSDYHEHGSLFDYLNRYTVTVEGMIKLALSTASGLAHLHMEIVGTQGKPAIAHRDLKSKNILVKKNGTCCIADLGLAVRHDSATDTIDIAPNHRVGTKRYMAPEVLDDSINMKHFESFKRADIYAMGLVFWEIARRCSIGGIHEDYQLPYYDLVPSDPSVEEMRKVVCEQKLRPNIPNRWQSCEALRVMAKIMRECWYANGAARLTALRIKKTLSQLSQQEGIKM [TGFBR1]”, the “solubility change mitosis (log2)” value in data set [1] was -0.101. For the same sequence, the thermal stability score in data set [2] (setting [5]) is 0.718; in data set [2] (cell cycle stage: mitosis) it was 0.929. Also, the melting temperature in data set [3] (cell cycle stage: G1/S) was determined as 50.2 °C; in data set [3] (cell cycle stage: mitosis), 50.8 °C. Moreover, the “solubility in G1/S (log2)” value in data set [4] was -0.00326.

Take “MEAFQELRKPSARLECDHCSFRGTDYENVQIHMGTIHPEFCDEMDAGGLGKMIFYQKSAKLFHCHKCFFTSKMYSNVYYHITSKHASPDKWNDKPKNQLNKETDPVKSPPLPEHQKIPCNSAEPKSIPALSMETQKLGSVLSPESPKPTPLTPLEPQKPGSVVSPELQTPLPSPEPSKPASVSSPEPPKSVPVCESQKLAPVPSPEPQKPAPVSPESVKATLSNPKPQKQSHFPETLGPPSASSPESPVLAASPEPWGPSPAASPESRKSARTTSPEPRKPSPSESPEPWKPFPAVSPEPRRPAPAVSPGSWKPGPPGSPRPWKSNPSASSGPWKPAKPAPSVSPGPWKPIPSVSPGPWKPTPSVSSASWKSSSVSPSSWKSPPASPESWKSGPPELRKTAPTLSPEHWKAVPPVSPELRKPGPPLSPEIRSPAGSPELRKPSGSPDLWKLSPDQRKTSPASLDFPESQKSSRGGSPDLWKSSFFIEPQKPVFPETRKPGPSGPSESPKAASDIWKPVLSIDTEPRKPALFPEPAKTAPPASPEARKRALFPEPRKHALFPELPKSALFSESQKAVELGDELQIDAIDDQKCDILVQEELLASPKKLLEDTLFPSSKKLKKDNQESSDAELSSSEYIKTDLDAMDIKGQESSSDQEQVDVESIDFSKENKMDMTSPEQSRNVLQFTEEKEAFISEEEIAKYMKRGKGKYYCKICCCRAMKKGAVLHHLVNKHNVHSPYKCTICGKAFLLESLLKNHVAAHGQSLLKCPRCNFESNFPRGFKKHLTHCQSRHNEEANKKLMEALEPPLEEQQI [CHAMP1]”: in data set [1], the “solubility change mitosis (log2)” value amounted to 0.221. Moreover, the thermal stability score in data set [2] (setting [5]) was determined as 1.41; in data set [2] (cell cycle stage: mitosis), 3.68. Also, the melting temperature in data set [3] (cell cycle stage: G1/S) is 48.8 °C; in data set [3] (cell cycle stage: mitosis), 50.3 °C. The “solubility in G1/S (log2)” value in data set [4] is -0.327.

With “MEASRRFPEAEALSPEQAAHYLRYVKEAKEATKNGDLEEAFKLFNLAKDIFPNEKVLSRIQKIQEALEELAEQGDDEFTDVCNSGLLLYRELHNQLFEHQKEGIAFLYSLYRDGRKGGILADDMGLGKTVQIIAFLSGMFDASLVNHVLLIMPTNLINTWVKEFIKWTPGMRVKTFHGPSKDERTRNLNRIQQRNGVIITTYQMLINNWQQLSSFRGQEFVWDYVILDEAHKIKTSSTKSAICARAIPASNRLLLTGTPIQNNLQELWSLFDFACQGSLLGTLKTFKMEYENPITRAREKDATPGEKALGFKISENLMAIIKPYFLRRTKEDVQKKKSSNPEARLNEKNPDVDAICEMPSLSRKNDLIIWIRLVPLQEEIYRKFVSLDHIKELLMETRSPLAELGVLKKLCDHPRLLSARACCLLNLGTFSAQDGNEGEDSPDVDHIDQVTDDTLMEESGKMIFLMDLLKRLRDEGHQTLVFSQSRQILNIIERLLKNRHFKTLRIDGTVTHLLEREKRINLFQQNKDYSVFLLTTQVGGVGLTLTAATRVVIFDPSWNPATDAQAVDRVYRIGQKENVVVYRLITCGTVEEKIYRRQVFKDSLIRQTTGEKKNPFRYFSKQELRELFTIEDLQNSVTQLQLQSLHAAQRKSDIKLDEHIAYLQSLGIAGISDHDLMYTCDLSVKEELDVVEESHYIQQRVQKAQFLVEFESQNKEFLMEQQRTRNEGAWLREPVFPSSTKKKCPKLNKPQPQPSPLLSTHHTQEEDISSKMASVVIDDLPKEGEKQDLSSIKVNVTTLQDGKGTGSADSIATLPKGFGSVEELCTNSSLGMEKSFATKNEAVQKETLQEGPKQEALQEDPLESFNYVLSKSTKADIGPNLDQLKDDEILRHCNPWPIISITNESQNAESNVSIIEIADDLSASHSALQDAQASEAKLEEEPSASSPQYACDFNLFLEDSADNRQNFSSQSLEHVEKENSLCGSAPNSRAGFVHSKTCLSWEFSEKDDEPEEVVVKAKIRSKARRIVSDGEDEDDSFKDTSSINPFNTSLFQFSSVKQFDASTPKNDISPPGRFFSSQIPSSVNKSMNSRRSLASRRSLINMVLDHVEDMEERLDDSSEAKGPEDYPEEGVEESSGEASKYTEEDPSGETLSSENKSSWLMTSKPSALAQETSLGAPEPLSGEQLVGSPQDKAAEATNDYETLVKRGKELKECGKIQEALNCLVKALDIKSADPEVMLLTLSLYKQLNNN [ERCC6L]”, the “solubility change mitosis (log2)” value in data set [1] is -0.161. Further, the thermal stability score in data set [2] (setting [5]) was 1.6; in data set [2] (cell cycle stage: mitosis), 2.53. The results for the melting temperature in data set [3] (cell cycle stage: G1/S) and in data set [3] (cell cycle stage: mitosis) were 49.5 °C and 49.1 °C, respectively. The “solubility in G1/S (log2)” value in data set [4] is -0.0349.

As for “MEATTAGVGRLEEEALRRKERLKALREKTGRKDKEDGEPKTKHLREEEEEGEKHRELRLRNYVPEDEDLKKRRVPQAKPVAVEEKVKEQLEAAKPEPVIEEVDLANLAPRKPDWDLKRDVAKKLEKLKKRTQRAIAELIRERLKGQEDSLASAVDAATEQKTCDSD [CCDC12]”, the “solubility change mitosis (log2)” value in data set [1] worked out at 0.156. Also, the thermal stability score was -1.88 in data set [2] (setting [5]) and -2.79 in data set [2] (cell cycle stage: mitosis). Besides, the melting temperature in data set [3] (cell cycle stage: G1/S) amounted to 53.7 °C; in data set [3] (cell cycle stage: mitosis), 53.3 °C. The “solubility in G1/S (log2)” value in data set [4] was found to be 0.73.

Take “MEAVAVAAAVGVLLLAGAGGAAGDEAREAAAVRALVARLLGPGPAADFSVSVERALAAKPGLDTYSLGGGGAARVRVRGSTGVAAAAGLHRYLRDFCGCHVAWSGSQLRLPRPLPAVPGELTEATPNRYRYYQNVCTQSYSFVWWDWARWEREIDWMALNGINLALAWSGQEAIWQRVYLALGLTQAEINEFFTGPAFLAWGRMGNLHTWDGPLPPSWHIKQLYLQHRVLDQMRSFGMTPVLPAFAGHVPEAVTRVFPQVNVTKMGSWGHFNCSYSCSFLLAPEDPIFPIIGSLFLRELIKEFGTDHIYGADTFNEMQPPSSEPSYLAAATTAVYEAMTAVDTEAVWLLQGWLFQHQPQFWGPAQIRAVLGAVPRGRLLVLDLFAESQPVYTRTASFQGQPFIWCMLHNFGGNHGLFGALEAVNGGPEAARLFPNSTMVGTGMAPEGISQNEVVYSLMAELGWRKDPVPDLAAWVTSFAARRYGVSHPDAGAAWRLLLRSVYNCSGEACRGHNRSPLVRRPSLQMNTSIWYNRSDVFEAWRLLLTSAPSLATSPAFRYDLLDLTRQAVQELVSLYYEEARSAYLSKELASLLRAGGVLAYELLPALDEVLASDSRFLLGSWLEQARAAAVSEAEADFYEQNSRYQLTLWGPEGNILDYANKQLAGLVANYYTPRWRLFLEALVDSVAQGIPFQQHQFDKNVFQLEQAFVLSKQRYPSQPRGDTVDLAKKIFLKYYPRWVAGSW [NAGLU]”: in data set [1], the “solubility change mitosis (log2)” value is -0.238. Moreover, the thermal stability score in data set [2] (setting [5]) is -2.49; in data set [2] (cell cycle stage: mitosis), -1.73. The results for the melting temperature in data set [3] (cell cycle stage: G1/S) and in data set [3] (cell cycle stage: mitosis) were 55.7 °C and 55.5 °C, respectively. In addition, the “solubility in G1/S (log2)” value in data set [4] worked out at 0.341.
